The Human Domainome abundance scans (Beltran et al. 2025)

B1: Segment polarity protein dishevelled homolog DVL-3, residues 2 to 81; numbered along this chain, Q92997 (parent)
chain: GETKIIYHLDGQETPYLVKLPLPAERVTLADFKGVLQRPSYKFFFKSMDDDFGVVKEEISDDNAKLPCFNGRVVSWLVSA

Variants of: B1
Experiment: abundance fitness (aPCA) (normalised: wild type 0, dead -1); higher = more abundant; growth selection in yeast, the domain comes from the species named
Conditions: Homo sapiens

Abundance fitness of substitutions, site by site:
L22: G -0.856; S -0.822; T -0.598; E -0.617; M -0.017; F -0.502; K -0.019; P -0.645; H -0.617; R -0.656; D -0.574; V 0.059; N -0.923; Q -0.429; W -0.578; C -0.231; A -0.604
P23: K -0.671; F -0.405; C -0.79; Y -0.517; G -0.73; D -0.469; H -0.55; I -0.112; M -0.972; Q -0.731; T -0.862; L -0.682; A -0.395; W -0.863; N -0.833; V -0.739; E -0.383; R -0.625
K19: T 0.271; D -0.547; W -0.357; C -0.024; E -0.034; Y -0.154; G -0.635; M 0.058; R -0.132; H -0.07; Q -0.297; P -0.797; A -0.143; F -0.215; N -0.133; I 0.314; V 0.383; S 0.157
Y16: F -0.082; E -0.167; C 0.041; H 0.23; Q 0.16; L 0.025; T -0.15; K 0.074; M 0.096; W -0.572; P -0.869; V -0.115; I 0.216; N -0.157; D -0.708; S -0.213; A -0.593
P15: H -0.348; Y -0.743; F -0.891; A -0.142; I -0.863; E 0.136; D -0.464; G -0.47; Q -0.064; L -0.654; T -0.058; N -0.529; R -0.406; C -0.33; S -0.078
P21: S -0.313; A -0.169; D -0.253; K -0.449; M -0.426; H -0.196; R -0.575; N 0.003; W -0.712; Y -0.693; L -0.758; Q -0.269; C -0.391; F -0.588; G -0.56; E -0.293; T -0.592; V -0.789; I -0.561
H8: L -0.542; S -0.617; I -0.681; E -1.06; P -0.225; F 0.23; T -0.503; Q -0.747; G -0.668; Y 0.19; N -0.661; A -0.772; C -1.19; V -0.494; R -0.326; K -0.548; M -0.455; W 0.027
L20: D -0.68; V 0.104; W -0.472; R -0.779; C -0.632; G -0.625; F -0.336; A -1.06; Q -1.09; P -0.954; I 0.101; T -0.836; S -0.664; K -0.666; M -0.679; E -0.615
I5: V -0.265; P -0.543; Y -0.969; S -0.765; T -0.437; W -0.625; R -0.784; N -0.916
E13: P -0.011; M -0.047; V -0.426; D -0.129; L -0.42; S -0.107; H -0.473; F -0.549; Y -0.526; G -0.348; I -0.184; Q -0.034; A -0.183; R -0.092; T -0.129; K 0.064; W -0.351; N -0.222; C -0.251
V18: I -0.025; A -0.264; R -0.717; F -0.707; N -0.329; D -0.694; M -0.247; Y -0.589; W -0.643; H -0.298; S -0.906; K -0.601; G -0.612; E -0.68; L -0.054; T -0.33; Q -0.872; C -0.558
Y7: L -0.735; V -0.37; D -0.947; A -0.882; W -0.869; Q -0.975; E -0.608; C -0.663; R -0.811; P -0.806; G -0.833; I -0.74; H -0.78; S -0.884; N -0.636; K -0.749; T -0.731
L9: I 0.163; D -0.535; Q -0.825; K -0.574; H -1.14; E -0.546; T -0.767; S -0.366; P -0.695; Y -0.581; F -0.575; C -0.528; V 0.167; N -0.888; M -0.283; R -0.704; A -0.518; G -0.622
L17: N -0.482; P -0.907; Q 0.271; G -0.434; K -0.367; D -0.677; I 0.447; H 0.335; E 0.75; R -0.337; T 0.479; Y 0.258; M 0.428; A -0.098; W 0.022; F 0.328; C 0.347; S 0.245
D10: F -0.677; S -0.68; N -0.507; V -0.726; K -0.791; I -0.831; H -0.568; C -0.709; L -0.848; A -0.513; M -0.822; W -0.866; T -0.471; R -0.696; G -0.709; P 0.002; E -0.016
G11: W -0.466; T -0.418; K -0.384; Q -0.322; S -0.262; L -0.389; N 0.095; P -0.668; I -1.06; Y -0.391; V -0.919; C -0.333; A -0.356; M -0.617; R -0.435; E -0.112; D 0.192; H -0.471; F -0.586
I6: V -0.135; M -0.502; E 0.153; G -0.625; P -0.816; A -0.578; D -0.585; N -0.451; K -0.892; H -0.076; C -0.467; T -0.132; R -0.728; Y 0.248; S -0.431; Q -0.28; L -0.152; F -0.015
Q12: E 0.219; G 0.129; V -0.012; W -0.612; K -0.088; L -0.305; S 0.263; H 0.134; Y -0.019; C 0.126; F -0.227; M 0.063; N 0.269; D 0.386; T -0.106; A -0.129; I 0.083; R -0.053; P -0.638
T14: Y -0.955; K 0.286; V -0.128; M -0.265; N -0.049; E 0.215; Q 0.114; R 0.096; S -0.104; P -0.129; L -0.328; G -0.296; D 0.038; C -0.112; H 0.281; W -0.529; I 0.024; A -0.123; F -0.092
A24: C -0.107; E -0.415; F -0.549; D -0.54; H -0.505; G -0.168
